Experimental data from article PMC3023130.

Target: DQ1-MBP85-99 complex, monobiotinylated (SPR)
Assay: SPR

Substance | Kd [µM]
Hy.1B11 TCR mutant CDR3α E98A | > 250
Hy.1B11 TCR mutant CDR2β Q48A | 108
Hy.1B11 TCR double mutant CDR1α N31A and CDR2α S52A | 13.8

The remaining lines, values ahead:

Kd [µM] | Substance
> 250 | Hy.1B11 TCR mutant CDR3α F95A
14.3 | Hy.1B11 TCR, soluble monomeric wild type
